Results taken from patent publication US20240415886A1.

B1: inventive TCR specific for the mutated p53^R175H peptide in the context of HLA-A2, with murine alpha and beta constant regions, expressed from lentiviral … (TCR)
TCR alpha: GIQVEQSPPDLILQEGANSTLRCNFSDSVNNLQWFHQNPWGQLINLFYIPSGTKQNGRLSATTVATERYSLLYISSSQTTDSGVYFCAVNQAGTALIFGKGTTLSVSSNIQNPEPAVYQLKDPRSQDSTLCLFTDFDSQINVPKTMESGTFITDKTVLDMKAMDSKSNGAIAWSNQTSFTCQDIFKETNATYPSSDVPCDATLTEKSFETDMNLNFQNLSVMGLRILLLKVAGFNLLMTLRLWSS
TCR beta: EPEVTQTPSHQVTQMGQEVILRCVPISNHLYFYWYRQILGQKVEFLVSFYNNEISEKSEIFDDQFSVERPDGSNFTLKIRSTKLEDSAMYFCASMGTGDEAFFGQGTRLTVVEDLRNVTPPKVSLFEPSKAEIANKQKATLVCLARGFFPDHVELSWWVNGKEVHSGVSTDPQAYKESNYSYCLSSRLRVSATFWHNPRNHFRCQVQFHGLSEEDKWPEGSPKPVTQNISAEAWGRADCGITSASYQQGVLSATILYEILLGKATLYAVLVSTLVVMAMVKRKNS
B2: inventive TCR specific for the mutated p53^R175H peptide in the context of HLA-A2, with murine alpha and beta constant regions, expressed from lentiviral … (TCR, V domains shown)
V domain 1: GIQVEQSPPDLILQEGANSTLRCNFSDSVNNLQWFHQNPWGQLINLFYIPSGTKQNGRLSATTVATERYSLLYISSSQTTDSGVYFCAVNQAGTALIFGKGTTLSVSS
V domain 2: EPEVTQTPSHQVTQMGQEVILRCVPISNHLYFYWYRQILGQKVEFLVSFYNNEISEKSEIFDDQFSVERPDGSNFTLKIRSTKLEDSAMYFCASMGTGDEAFFGQGTRLTVVE

Columns and labels:
[1] = target: mutated p53^R175H peptide (…) presented by HLA-A2 on target cells (human); assay: cell-based or functional assay
[2] = target: p53^R175H/HLA-A2 tetramer labeled with PE (p53^R175H peptide … with Flex-T HLA-A*02:01 monomer, Biolegend cat #280003) (human); assay: flow cytometry, PE tetramer staining of gated CD8+GFP+ TCR-transduced primary T cells

Row | Binder | avidity (lowest activating peptide concentration), CD8+ primary T cells against CD8-negative JRT cells [1] [fold] | percentage of CD8+CD137+ cells in the gated GFP+ cells [1] [ng/mL] | percentage of CD69+ cells in the gated GFP+ JRT cells [1] [ng/mL] | percent of cells binding tetramer [2] [%]
1 | B1 | 10 | 1 | 10 | 
2 | B2 |  |  |  | 82.9
